{
  "source": "the supplement of paper PMC9732359",
  "note": "± gives the uncertainty stated by the source.",
  "data": [
    {"assay": "protein stability index of a GFP-peptide fusion (yeast GPS) (PSI 1-4); higher = more stable; sorted into four equal gates, so the index is relative within each strain", "details": "pdr5∆", "procedure,_shortened": "(§1)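 Sequencing reads from sorted gates were used to score each peptide. The library consisted of tiled 17-residue yeast protein peptides fused downstream of GFP on a Cherry-expressing plasmid, pooled and carried in yeast. Mid-log cultures in leucine-free medium were split into four equal gates by GFP/Cherry ratio, and each gate's plasmids were PCR-amplified and Illumina-sequenced. The protein stability index adds up, over all gates, the read frequency multiplied by the gate number.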", "values": [
      {"sequence": "QFVDMVLPNTALKTSIQ [FAS1]", "protein stability index": "1.61 ± 0.05"},
      {"sequence": "QGDVEQIAAQSPVELSR [SMC1]", "protein stability index": "2.92 ± 0.067"}
    ]},
    {"assay": "protein stability index of a GFP-peptide fusion (yeast GPS) (PSI 1-4); higher = more stable; sorted into four equal gates, so the index is relative within each strain", "details": "san1∆", "procedure,_shortened": "as §1", "values": [
      {"sequence": "PEQVYSLLLTNVIITGS [ARP7]", "protein stability index": "1.17 ± 0.11"},
      {"sequence": "PEQYSDILLNERVWNIC [AAR2]", "protein stability index": "2.68 ± 0.18"},
      {"sequence": "PERFMVFQLPTRLPAFE [RPC53]", "protein stability index": "2.54 ± 0.089"},
      {"sequence": "PEYFESPLQSSKSKQSF [YMR129W/POM152]", "protein stability index": "2.91 ± 0.084"},
      {"sequence": "PEYLAMYGLTMEWPKDM [ITC1]", "protein stability index": "2.23 ± 0.14"},
      {"sequence": "PFFKYIDDANVTRKQED [RPC37]", "protein stability index": "2.34 ± 0.083"},
      {"sequence": "PFKGEVVDGTVVSCSQH [RPB7]", "protein stability index": "2.92 ± 0.088"},
      {"sequence": "PFSYLIDETMMDKPLNF [SRB5]", "protein stability index": "2.83 ± 0.067"},
      {"sequence": "PFVPVLDRRFEIFFKKD [FAS1]", "protein stability index": "2.73 ± 0.055"},
      {"sequence": "PFYGSYTETDPAKVAEE [SRP54]", "protein stability index": "3.08 ± 0.055"},
      {"sequence": "PGEYITTIKAIFDGNYG [YMR129W/POM152]", "protein stability index": "2.77 ± 0.069"},
      {"sequence": "PGSVNSAAKYKDMKLLR [NUT1]", "protein stability index": "2.73 ± 0.13"},
      {"sequence": "PGVDVSAEEQLRKIDML [SRB7]", "protein stability index": "2.31 ± 0.072"},
      {"sequence": "PGVLPVGIDTHTATDIY [SNF2]", "protein stability index": "2.77 ± 0.045"},
      {"sequence": "PGVRVSGEDVIIGKTTP [RPB2]", "protein stability index": "3.61 ± 0.078"},
      {"sequence": "PGYVDIVKTSSGNEMPP [RPS19A]", "protein stability index": "2.84 ± 0.11"},
      {"sequence": "PHANPITHAHSLSNPNS [PGD1]", "protein stability index": "2.77 ± 0.038"},
      {"sequence": "PHTTLVNECIAQSHQRF [CDC53]", "protein stability index": "2.85 ± 0.055"},
      {"sequence": "PIGEAGDFGGWFCPCHG [RIP1]", "protein stability index": "2.87 ± 0.08"},
      {"sequence": "PIIIYGTENTERPPLLP [YOR098C/NUP1]", "protein stability index": "2.97 ± 0.06"},
      {"sequence": "PIPIAVLDSYTPSTNEP [FAS1]", "protein stability index": "2.69 ± 0.074"},
      {"sequence": "PIYTGDGWVKLTYKSEL [YMR153W/NUP53]", "protein stability index": "2.45 ± 0.11"},
      {"sequence": "PKAISNFLIKLSELSPG [YCS4]", "protein stability index": "2.08 ± 0.095"},
      {"sequence": "PKFISEALAFTSLVANE [YDL116W/NUP84]", "protein stability index": "1.31 ± 0.15"},
      {"sequence": "PKKYKENNTDSARKELE [SMC1]", "protein stability index": "3.09 ± 0.046"},
      {"sequence": "PKPDKPSGRTRGRSVMK [ESC2]", "protein stability index": "3.08 ± 0.098"},
      {"sequence": "PKQSDEYLKRVSVPVSG [SIR3]", "protein stability index": "2.81 ± 0.096"},
      {"sequence": "PKTGKVERSEAISKKDL [SEC65]", "protein stability index": "3.33 ± 0.14"},
      {"sequence": "PKVPEDIYKSHLDNSKS [RPN1]", "protein stability index": "2.93 ± 0.1"},
      {"sequence": "PLAKIYLEENKSDSQYR [MED1]", "protein stability index": "3.15 ± 0.059"},
      {"sequence": "PLDTIETELPTLSLPDS [SMC1]", "protein stability index": "2.92 ± 0.083"},
      {"sequence": "PLGKILLKGDNITLITS [SME1]", "protein stability index": "1.89 ± 0.16"},
      {"sequence": "PLINRLKHYNGYDINYI [SWI1]", "protein stability index": "2.76 ± 0.065"},
      {"sequence": "PLKYTKLIAAAEDGSRS [SNF6]", "protein stability index": "1.19 ± 0.21"},
      {"sequence": "PLLTKRKDLRDKLICSI [DIS3]", "protein stability index": "2.31 ± 0.1"},
      {"sequence": "PLLVPGMTPCTVSPDFV [FAS1]", "protein stability index": "1.98 ± 0.11"},
      {"sequence": "PMDAYLKLNHIIANINS [SNU114]", "protein stability index": "1.97 ± 0.22"},
      {"sequence": "PMTVKLVQLPKSAMDTF [POP3]", "protein stability index": "2.81 ± 0.053"},
      {"sequence": "PNEFMQFKSKEVEKAHP [PRP8]", "protein stability index": "3.23 ± 0.052"},
      {"sequence": "PNEHPGAKYVIRDSGDR [RPO21]", "protein stability index": "2.7 ± 0.15"},
      {"sequence": "PNIMLIFGSGFGSADDT [FAS1]", "protein stability index": "3.12 ± 0.067"},
      {"sequence": "PNRLVKELQYDNEQNLE [PRE2]", "protein stability index": "2.8 ± 0.094"},
      {"sequence": "PNVCNMKQYRDFLGVAS [PRP28]", "protein stability index": "2.37 ± 0.077"},
      {"sequence": "PPDSDSSISVMGENEKP [RPT3]", "protein stability index": "1.21 ± 0.15"},
      {"sequence": "PPKPRKVLQLLRLTRIN [RPL7A]", "protein stability index": "1.7 ± 0.12"},
      {"sequence": "PPSSFGRSHTRNSTRSS [REC8]", "protein stability index": "3.14 ± 0.087"},
      {"sequence": "PQEPKHIQEEEEQDVDM [RPC19]", "protein stability index": "3.12 ± 0.05"},
      {"sequence": "PQFDSTQPKSSSSMDMQ [SSN3]", "protein stability index": "2.95 ± 0.05"},
      {"sequence": "PQINILQPIKGESARRF [RPC40]", "protein stability index": "2.43 ± 0.12"},
      {"sequence": "PQKPVPLNVLQDQYKEG [SNF2]", "protein stability index": "3.1 ± 0.086"}
    ]}
  ]
}
